Sequences and labels used below:
B1: polymerase basic 2 (PB2) subunit of influenza A/Brevig Mission/1/1918 (H1N1) virus (natural protein)
chain: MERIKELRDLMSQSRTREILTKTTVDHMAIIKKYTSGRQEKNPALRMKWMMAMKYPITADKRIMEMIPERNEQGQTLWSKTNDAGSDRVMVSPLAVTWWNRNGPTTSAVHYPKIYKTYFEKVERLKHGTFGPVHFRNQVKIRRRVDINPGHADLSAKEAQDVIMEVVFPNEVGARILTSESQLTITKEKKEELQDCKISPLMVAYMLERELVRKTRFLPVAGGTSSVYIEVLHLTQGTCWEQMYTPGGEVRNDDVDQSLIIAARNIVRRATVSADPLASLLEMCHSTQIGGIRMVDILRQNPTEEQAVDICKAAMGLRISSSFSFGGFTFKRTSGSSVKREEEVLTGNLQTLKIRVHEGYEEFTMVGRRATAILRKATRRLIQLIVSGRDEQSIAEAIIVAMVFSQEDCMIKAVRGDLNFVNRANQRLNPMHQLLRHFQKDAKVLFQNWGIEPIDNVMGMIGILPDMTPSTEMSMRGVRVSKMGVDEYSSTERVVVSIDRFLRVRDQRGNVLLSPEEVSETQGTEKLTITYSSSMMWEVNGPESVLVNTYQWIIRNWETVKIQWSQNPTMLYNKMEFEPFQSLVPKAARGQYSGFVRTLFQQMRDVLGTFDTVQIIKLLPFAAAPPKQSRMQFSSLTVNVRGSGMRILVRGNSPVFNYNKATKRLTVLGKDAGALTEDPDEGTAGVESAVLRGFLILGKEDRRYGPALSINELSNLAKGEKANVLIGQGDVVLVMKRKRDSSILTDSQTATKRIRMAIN
notes: the PB2 chain of m1
B2: Nb8200 (VHH)
VHH: QVQLQESGGGLVQAGDSLRLSCAASGRTFSGYIMAWFRQTPGKERELVARLGPSSSIQYYRDSVKGRFTLSRDNAKNTLYLQMNSLKPEDTAVYYCAFTLKWSSDYRSHNAYDYWGQGTQVTVSS
notes: source: E. coli WK6, periplasm, purified (Ni-NTA)
B3: Nb8198 (VHH)
VHH: QVQLQESGGGLVQTGDSLRLSCAGAERSFNSYTMGWFRQAPGKEREFVAAIAFSGGFTYYAEAVKGRFTISRDSGKNTVYLQMNSLKPEDTAVYYCAARFYGGGYYYQQREYSFWGQGTQVTVSS
notes: as for B2
B4: Nb8207 (VHH)
VHH: QVQLQESGGGLVQAGASLRLSCTASGRTSSTYPMGWFRQGPGKEREFVAAISWAGSSTYYGDFVKGRFTISRDNAKNTVYLQMNSLKPEDTAVYYCARAARPYAYGLDYSTEASYDYWGQGTQVTVSS
notes: as for B2
B5: Nb8203 (VHH)
VHH: QVQLQESGGGLVQAGGSLRLSCAAPGRILTLSRYVMGWFRQAPGKEREFVAAISPGTTDTDYADSVKGRFTISRDNAKNTVYLEMSSLKPEDTAVYVCAAGAASSGTVYRVYGLYNYRGQGTQVTVSS
B6: Nb8192 (VHH)
VHH: QVQLQESGGGLVQAGASLRLSCAASGRTFMGWFRQAPGQEREFVAAIDAFGINTYYADSAKGRFTISRDSAKNTVYLQMNSLKPEDTAVYYCAATLRGTQPGAVMQWRPDYWGQGTQVTVSS
notes: as for B2
B7: Nb8204 (VHH)
VHH: QVQLQESGGGLVQPRGSLRLSCAASGSIAIIYTMGWYRQAPLKERELVATVTYGGNTNYADPVKGRFTISRDNNKNTEYLQMSSLQPEDTAVYYCYMRVRSTAWDTDDYWGQGTQVTVSS
notes: as for B2
B8: Nb8196 (VHH)
VHH: QVQLQESGGGLVQAGDSLRLSCTTSGSSLSRYGVGWFRQAPGEEREFGASISWNGATYYADSVKGRFTISRDNAKNTVYLQMNSLKAEDTAVYYCAARSDGYLTPYLSPVYWGQGTQVTVSS
notes: as for B2
B9: Nb8206 (VHH)
VHH: QVQLQESGGGLVQPGGSLRLSCTASGGIFGISAMGWYRQAPGKERELVARITRSGSTNFADSVKDRFTISRDATENTVVLQMNSLKAEDTAVYYCNGQFWEVDNGNIDLWGQGTQVTVSS
notes: as for B2
B10: Nb8191 (VHH)
VHH: QVQLQESGGGLVQPGGSLRLSCTASESVASINIVGWYRQISGKERELVARISSGGTITDYSDSVKGRFTITRDNTKNTVYLQMNSLKRGDTAVYYCNAEYQYGSDWFHIWGQGTQVTVSS
notes: as for B2
B11: Nb8199 (VHH)
VHH: QVQLQESGGGLVQAGGSLRLSCAASGRTFSSYAMGWFRQAPGKEREFVGAIDLSGLYKHYGDSVKGRFTISRDNAKNTVYLQMSSLKPEDTAVYYCAAAGIYYAGSYSPLLYDYWGQGTQVTVSS
notes: as for B2
B12: Nb8205 (VHH)
chain: QVQLQESGGGMVQPGGSLRLSCLASGFTFSNYAMTWVRQAPGKGPEWVSMVSNNGADTTYTDSVKGRFTISRDNAKNTLYLRMNNVKPEDSAVYYCAKRRYGGIWTGQPTDYDYLGQGTVTVSS
B13: Nb8209 (VHH)
VHH: QVQLQESGGGLVQPGGSLRLSCAASGNIRSINTMSWYRQAPGKERELVASDSTGGSTGGSTVYAASVKGRFTISRDNAKNTVYLQMNMLKPEDTAVYYCYVYGMSRFGSTISTLFGQGTQVTVSS
notes: as for B2
B14: Nb8202 (VHH)
VHH: QVQLQESGGGLVQAGESLRLSCAASGGTFIYYGMGWFRQAPGKEREFVASISQTGGDIYAMDFVKGRFTISRDNSKNTLYLQMNSLKPEDTAVYYCAAATSPYASRKLYEYKYWGQGTQVTVSS
notes: as for B2
B15: Nb8210 (VHH)
VHH: QVQLQESGGGLVQAGESLRLSCAASGGTLIYYGMGWFRQAPGKEREFVASISQAGGDIYAMDFVKGRFTISRDNSKNTLYLQLNTLKPEDTAVYYCAAATSPYASRKLYDYKYWGQGTQVTVSS
notes: as for B2
B16: Nb8190 (VHH)
VHH: QVQLQESGGGLVQAGGSLRLSCAASGRSLSDYTMGWFRQAPGKEREFVTAITSDGVYANYADSVKGRFTISRDNAKNTAYLQMNSLKPEDTAVYYCAGKTRRSMLMTTGYDYWGQGTQVTVSS
notes: as for B2
B17: Nb8201 (VHH)
VHH: QVQLQESGGGLVQPGGSLRLSCAASGSDFSLYAMGWYRQVPGKERELVATITIGGTTNFADSARGRFTISRGNAKNTVYLQMNNLKPEDTAVYYCWSRGSYGRYLETWGQGTQVTVSS
notes: as for B2
B18: Nb8189 (VHH)
VHH: QVQLQESGGGLVQPGGSLRLSCAASGSDFSLYAMGWYRQVPGKERELVATITSGGTTNFADSARGRFTISRGNAKNTVYLQMNNLKPEDTAVYYCWSRGSYGRYLETWGQGTQVTVSS
notes: as for B2
B19: Nb8197 (VHH)
VHH: QVQLQESGGGLVQPGGSLRLSCAASGFTFSSYAMSWVRQAPGKGLEWVSSITSAFGRTSYVSSVKGRFTISRDNAKNTLYLQMNSLKPEDTAVYYCAQGASWPYRYRGQGTQVTVSS
B20: Nb8208 (VHH)
VHH: QVQLQESGGGLVQPGGSLRLSCAASGRTFSMYAMAWFRQAPGKQREFVGTISRSGDYALHADAVKGRFTISRDNAKNTVYLQMNSLKLEDTAVYYCAAGAYHSKDKTLYDYWGQGTQVTVSS
notes: as for B2
B21: Nb8194 (VHH)
VHH: QVQLQESGGGLVQPGGSLRLSCAASGFTFSNYYMSWVRQAPGEGREWVSSINRDGSNTYYADSVKGRFTIARDNVKNTLYLLMDSLKSDDTAVYYCTKGSNWPYDNWGQGTQVTVSS
notes: as for B2
B22: Nb8193 (VHH)
VHH: QVQLQESGGGLVQPGGSLRLSCAASGFTFKMYAMSWVRQAPGKGLEWVSSINSAGGSTSYVDSVKGRFTISRDNAKNTLYLQMNSLKPDDTAVYYCVQGRNWPYDYRGQGTQVTVSS
notes: as for B2

In one experiment the target is T1, polymerase acidic (PA) subunit of influenza A/Brevig Mission/1/1918 (H1N1) virus (influenza A/Brevig Mission/1/1918 …, UniProt Q3HM39).
T1 construct: the PA chain of m1
The experiment is described as follows: cryo-EM structure. The conditions noted are these: both partners purified.
With B1, the binding result is “binds”.

For another experiment, the target named is T2, RNA polymerase of influenza A/Brevig Mission/1/1918 (H1N1) virus, heterotrimer of PA, PB1 and PB2 (influenza A/Brevig Mission/1/1918 …, UniProt Q3HM39;Q3HM40;Q3HM41).
T2 construct: also called 1918 polymerase; 1918 pandemic influenza virus polymerase; copies: + +
Description: cryo-EM structure. The following applies: both partners purified.
On to B2, for which the binding result is given as “binds”. The same measure, in the same setting: as for B3, the entry is “binds”; as for B4, “binds”. As to B5, the binding result is reported as “binds”. On the same count and under the same terms, with B6 the entry was “binds”; with B7, “binds”; with B8, “binds”. As for B9, the binding result is reported as “binds”. Still for that read-out and setting: as for B10, the entry is “binds”; as for B11, “binds”. With B12, the binding result is recorded as “binds”. B13: the binding result was “binds”. For B14, the binding result is “binds”.

Consider B15, for which the binding result is on record as “binds”.

In the case of B16, the binding result is listed as “binds”. On to B17, for which the binding result was “binds”.

Regarding B18, the binding result is “binds”.

Another experiment addresses T3, PB2 cap-mid-link construct (cap-binding and mid-link domains) from influenza A/duck/Fujian/01/2002 (H5N1) (Influenza A virus …).
Experiment: not given
Conditions: not given
Consider B19, for which the binding result is listed as “binds”.

Another experiment concerns the target T3, PB2 cap-mid-link construct (cap-binding …). Description: SEC. The following applies: both partners purified.
For B20, the binding result is reported as “binds”. Regarding B21, the binding result is given as “binds”.

With B22, the binding result is “binds”.

The values are drawn from article PMC8752864 (Nature Communications, 2022).
